Measured values reported in patent US20090280138A1 (OXFORD BIOMEDICA UK, published 2009).

These binders were tested against T1, MHC class I molecule A*0101 (biotin (bound to streptavidin-coated plate)) (assay: iTopia iScore).
T1 construct: also called A1; HLA-A1
Description: (§1) The 9 mers were tested for Peptide Binding, Off Rate and Affinity using iTopia Epitope Discovery System in accordance with the manufacturer's instructions. Briefly, 96 well microtitre plates coated with MHC molecules representing different MHC alleles are used to identify candidate peptides. […] Determinations are performed in duplicate using an ELISA plate reader and included allele specific positive controls.
(§2) Finally, multiparametric analysis is performed on the results from these assays and an iScore is generated. The iScore represents a measure of the overall quality of peptide-MHC binding, enabling candidate peptides to be ranked in order of binding quality and allowing rational prioritisation of peptides for functional cellular follow-up studies.
With CSRGPAAGD [5T4 9-mer peptide 3 CSRGPAAGD] the iScore was 0.
For AARTVKCVN [5T4 9-mer peptide 36 AARTVKCVN], the iScore was 0.
AYVRNLFLT [5T4 9-mer peptide 46 AYVRNLFLT] gave an iScore of 0.
For SASSFSSSA [5T4 9-mer peptide 19 SASSFSSSA], the iScore was 0.
RLRLARLAL [5T4 9-mer peptide 8 RLRLARLAL] was tested, and the iScore was 0.
LPAYVRNLF [5T4 9-mer peptide 45 LPAYVRNLF] gave an iScore of 0.
SPTSSASSF [5T4 9-mer peptide 17 SPTSSASSF] gave an iScore of 0.
Work on SEAARTVKC [5T4 9-mer peptide 35 SEAARTVKC] yielded an iScore of 0.
FLASAVSAQ [5T4 9-mer peptide 24 FLASAVSAQ] showed an iScore of 0.
For MPGGCSRGP [5T4 9-mer peptide 1 MPGGCSRGP], the iScore was 0.
NRNLTEVPT [5T4 9-mer peptide 40 NRNLTEVPT] showed an iScore of 0.
CVNRNLTEV [5T4 9-mer peptide 39 CVNRNLTEV] showed an iScore of 0.
With APFLASAVS [5T4 9-mer peptide 23 APFLASAVS] the iScore was 0.
SAQPPLPDQ [5T4 9-mer peptide 27 SAQPPLPDQ] was tested, and the iScore was 0.
For LCECSEAAR [5T4 9-mer peptide 33 LCECSEAAR], the iScore was 0.
For SSFSSSAPF [5T4 9-mer peptide 20 SSFSSSAPF], the iScore was 0.
VKCVNRNLT [5T4 9-mer peptide 38 VKCVNRNLT] showed an iScore of 0.
AVSAQPPLP [5T4 9-mer peptide 26 AVSAQPPLP] was tested, and the iScore was 0.
For GWVSSSSPT [5T4 9-mer peptide 14 GWVSSSSPT], the iScore was 0.
In the case of VSSSSPTSS [5T4 9-mer peptide 15 VSSSSPTSS], the iScore is reported as 0.
TEVPTDLPA [5T4 9-mer peptide 42 TEVPTDLPA] showed an iScore of 0.
RGPAAGDGR [5T4 9-mer peptide 4 RGPAAGDGR] showed an iScore of 0.
In the case of ARLALVLLG [5T4 9-mer peptide 10 ARLALVLLG], the iScore is reported as 0.

Each binder was assayed against T2, MHC class I molecule A*0201 (biotin (bound to streptavidin-coated plate)) (assay: iTopia iScore).
T2 construct: also called A2; HLA-A2
Description: as §1, §2
With CSRGPAAGD [5T4 9-mer peptide 3 CSRGPAAGD] the iScore was 0.
Binder AARTVKCVN [5T4 9-mer peptide 36 AARTVKCVN] has an iScore of 0.115.
Work on AYVRNLFLT [5T4 9-mer peptide 46 AYVRNLFLT] yielded an iScore of 0.18.
Work on SASSFSSSA [5T4 9-mer peptide 19 SASSFSSSA] yielded an iScore of 0.045.
With RLRLARLAL [5T4 9-mer peptide 8 RLRLARLAL] the iScore was 0.216.
LPAYVRNLF [5T4 9-mer peptide 45 LPAYVRNLF] gave an iScore of 0.
With SPTSSASSF [5T4 9-mer peptide 17 SPTSSASSF] the iScore was 0.
SEAARTVKC [5T4 9-mer peptide 35 SEAARTVKC] was tested, and the iScore was 0.
Binder FLASAVSAQ [5T4 9-mer peptide 24 FLASAVSAQ] has an iScore of 0.134.
MPGGCSRGP [5T4 9-mer peptide 1 MPGGCSRGP] gave an iScore of 0.
NRNLTEVPT [5T4 9-mer peptide 40 NRNLTEVPT] was tested, and the iScore was 0.
Work on CVNRNLTEV [5T4 9-mer peptide 39 CVNRNLTEV] yielded an iScore of 0.05.
For APFLASAVS [5T4 9-mer peptide 23 APFLASAVS], the iScore was 0.041.
In the case of SAQPPLPDQ [5T4 9-mer peptide 27 SAQPPLPDQ], the iScore is reported as 0.
With LCECSEAAR [5T4 9-mer peptide 33 LCECSEAAR] the iScore was 0.
Binder SSFSSSAPF [5T4 9-mer peptide 20 SSFSSSAPF] has an iScore of 0.037.
Binder VKCVNRNLT [5T4 9-mer peptide 38 VKCVNRNLT] has an iScore of 0.
AVSAQPPLP [5T4 9-mer peptide 26 AVSAQPPLP] showed an iScore of 0.062.
With GWVSSSSPT [5T4 9-mer peptide 14 GWVSSSSPT] the iScore was 0.044.
VSSSSPTSS [5T4 9-mer peptide 15 VSSSSPTSS] gave an iScore of 0.
Work on TEVPTDLPA [5T4 9-mer peptide 42 TEVPTDLPA] yielded an iScore of 0.
RGPAAGDGR [5T4 9-mer peptide 4 RGPAAGDGR] was tested, and the iScore was 0.032.
For ARLALVLLG [5T4 9-mer peptide 10 ARLALVLLG], the iScore was 0.143.

What follows are binders tested against T3, MHC class I molecule A*0301 (biotin (bound to streptavidin-coated plate)) (assay: iTopia iScore).
T3 construct: also called A3; HLA-A3
Description: as §1, §2
CSRGPAAGD [5T4 9-mer peptide 3 CSRGPAAGD] showed an iScore of 0.
Binder AARTVKCVN [5T4 9-mer peptide 36 AARTVKCVN] has an iScore of 0.
With AYVRNLFLT [5T4 9-mer peptide 46 AYVRNLFLT] the iScore was 0.
In the case of SASSFSSSA [5T4 9-mer peptide 19 SASSFSSSA], the iScore is reported as 0.
RLRLARLAL [5T4 9-mer peptide 8 RLRLARLAL] showed an iScore of 0.027.
LPAYVRNLF [5T4 9-mer peptide 45 LPAYVRNLF] showed an iScore of 0.
SPTSSASSF [5T4 9-mer peptide 17 SPTSSASSF] gave an iScore of 0.
For SEAARTVKC [5T4 9-mer peptide 35 SEAARTVKC], the iScore was 0.
With FLASAVSAQ [5T4 9-mer peptide 24 FLASAVSAQ] the iScore was 0.
MPGGCSRGP [5T4 9-mer peptide 1 MPGGCSRGP] gave an iScore of 0.
Binder NRNLTEVPT [5T4 9-mer peptide 40 NRNLTEVPT] has an iScore of 0.
Work on CVNRNLTEV [5T4 9-mer peptide 39 CVNRNLTEV] yielded an iScore of 0.
APFLASAVS [5T4 9-mer peptide 23 APFLASAVS] was tested, and the iScore was 0.
Work on SAQPPLPDQ [5T4 9-mer peptide 27 SAQPPLPDQ] yielded an iScore of 0.
For LCECSEAAR [5T4 9-mer peptide 33 LCECSEAAR], the iScore was 0.
With SSFSSSAPF [5T4 9-mer peptide 20 SSFSSSAPF] the iScore was 0.
Binder VKCVNRNLT [5T4 9-mer peptide 38 VKCVNRNLT] has an iScore of 0.
For AVSAQPPLP [5T4 9-mer peptide 26 AVSAQPPLP], the iScore was 0.
GWVSSSSPT [5T4 9-mer peptide 14 GWVSSSSPT] showed an iScore of 0.
Work on VSSSSPTSS [5T4 9-mer peptide 15 VSSSSPTSS] yielded an iScore of 0.
Binder TEVPTDLPA [5T4 9-mer peptide 42 TEVPTDLPA] has an iScore of 0.
In the case of RGPAAGDGR [5T4 9-mer peptide 4 RGPAAGDGR], the iScore is reported as 0.
ARLALVLLG [5T4 9-mer peptide 10 ARLALVLLG] showed an iScore of 0.

These binders were tested against T4, MHC class I molecule B*0702 (biotin (bound to streptavidin-coated plate)) (assay: iTopia iScore).
T4 construct: also called B7; HLA-B7
Description: as §1, §2
With CSRGPAAGD [5T4 9-mer peptide 3 CSRGPAAGD] the iScore was 0.
AARTVKCVN [5T4 9-mer peptide 36 AARTVKCVN] showed an iScore of 0.059.
Work on AYVRNLFLT [5T4 9-mer peptide 46 AYVRNLFLT] yielded an iScore of 0.
In the case of SASSFSSSA [5T4 9-mer peptide 19 SASSFSSSA], the iScore is reported as 0.
RLRLARLAL [5T4 9-mer peptide 8 RLRLARLAL] was tested, and the iScore was 1.
LPAYVRNLF [5T4 9-mer peptide 45 LPAYVRNLF] showed an iScore of 0.389.
SPTSSASSF [5T4 9-mer peptide 17 SPTSSASSF] was tested, and the iScore was 0.335.
With SEAARTVKC [5T4 9-mer peptide 35 SEAARTVKC] the iScore was 0.
Binder FLASAVSAQ [5T4 9-mer peptide 24 FLASAVSAQ] has an iScore of 0.
In the case of MPGGCSRGP [5T4 9-mer peptide 1 MPGGCSRGP], the iScore is reported as 0.
For NRNLTEVPT [5T4 9-mer peptide 40 NRNLTEVPT], the iScore was 0.
With CVNRNLTEV [5T4 9-mer peptide 39 CVNRNLTEV] the iScore was 0.093.
In the case of APFLASAVS [5T4 9-mer peptide 23 APFLASAVS], the iScore is reported as 0.176.
SAQPPLPDQ [5T4 9-mer peptide 27 SAQPPLPDQ] showed an iScore of 0.
In the case of LCECSEAAR [5T4 9-mer peptide 33 LCECSEAAR], the iScore is reported as 0.
Binder SSFSSSAPF [5T4 9-mer peptide 20 SSFSSSAPF] has an iScore of 0.
In the case of VKCVNRNLT [5T4 9-mer peptide 38 VKCVNRNLT], the iScore is reported as 0.
With AVSAQPPLP [5T4 9-mer peptide 26 AVSAQPPLP] the iScore was 0.
GWVSSSSPT [5T4 9-mer peptide 14 GWVSSSSPT] showed an iScore of 0.
VSSSSPTSS [5T4 9-mer peptide 15 VSSSSPTSS] was tested, and the iScore was 0.
TEVPTDLPA [5T4 9-mer peptide 42 TEVPTDLPA] was tested, and the iScore was 0.
For RGPAAGDGR [5T4 9-mer peptide 4 RGPAAGDGR], the iScore was 0.
ARLALVLLG [5T4 9-mer peptide 10 ARLALVLLG] gave an iScore of 0.
